Source: US20230279126A1 (published 2023)

B1: hIL23R_VHH1 (VHH)
VHH: QVQLQESGGGSVQAGGSLRLSCAASGYTYCSYDMSWYRQAPGKKREFVSAFNSDGTTSYADSVKGRFTISQDKAKNTVYLQMNSLKPEDTAMYYCKTDPHVQSSGGYCPPYWGQGTQVTVSS
notes: Phagemid clone with his-tag, periplasmic extract
B2: hIL23R_VHH5 (VHH)
VHH: QVQLQESGGGSVQAGGSLRLSCAASGYTYCSYDMSWYRQAPGKKREFVSAIASDGSTSYADSLKGRFTISQDNAKNTVYLQMNSLKPEDTAMYYCKTDPHVQSSGGYCPPYWGQGTQVTVSS
notes: as for B1
B3: hIL23R_VHH3 (VHH)
VHH: QVQLQESGGGSVQAGESLRLSCAASGYTYCTYDMTWYRQAPGKKREFVSGIHSDGTTSYADSVKGRFTISQDNAENTVYLQMNSLKPEDTAMYYCKTDPIATITRRCDSYWGQGTQVTVSS
notes: as for B1
B4: hIL23R_VHH10 (VHH)
VHH: QVQLQESGGGSVQAGGSLKLSCAASGYTYCNYDIAWYRQAPGKERKFVSAIASDGSTSYADSVKGRFTISQDNAKNTVYLQMNSLKPEDTAMYYCKTDPIATMTRRCDPYWGQGTQVTVSS
notes: as for B1
B5: hIL23R_VHH7 (VHH)
VHH: QVQLQESGGGSVQAGGSLRLSCAASGYTYCNYDIAWYRQAPGKERKFVSAIASDGITSYADSVKGRFTISQDNAKNTVYLQMNSLKPEDTAMYYCKTDPISTITRICDPYWGQGTQVTVSS
notes: as for B1
B6: hIL23R_VHH16 (VHH)
VHH: QVQLQESGGGSVEAGGALTLSCVASGYTYCNYDIAWYRQAPGKERKFVSAIASDGSTSYADSVKGRFTISQDNAKNTVYLQMNSLKPEDTAMYYCKTDPIATMTRRCDPYWGQGTQVTVSS
notes: as for B1
B7: hIL23R_VHH18 (VHH)
VHH: QVQLQESGGGSVQAGGSLRLACAASGYTYCNYDIAWYRQAPGKERKFVSAIASDGSTSYADSVKGRFTISQDNAKNTVYLQMNSLKPEDTAMYYCKTDPIATMTRRCDPYWGQGTQVTVSS
notes: as for B1
B8: hIL23R_VHH11 (VHH)
VHH: QVQLQESGGGSVQAGGSLRLSCAASGYTYCSYDMTWYRQAPGKKREFVSAIDSDGSTSYADSVKGRFTISQDNAKNTVYLQMNSLKPEDTAMYYCKTDPIATISRRCDSYWGQGTQVTVSS
notes: as for B1
B9: hIL23R_VHH6 (VHH)
VHH: QVQLQESGGGLVQPGGSLRLSCAASGYTYCSYDMGWYRQAPGKKRKFVSSINSDGTTSYADSVKGRFTISQDNAKNTVYLQMNSLKPEDTAMYYCKTDPQTRPGKPCADYWGQGTQVTVSS
notes: as for B1
B10: hIL23R_VHH9 (VHH)
VHH: QVQLQESGGGLVQAGGSLRLSCAASGYTYCSYDMSWYRQAPGKERKFVSSINSDGTTSYADSVKGRFTISQDNAKNTVYLQMNSLKPEDTAMYYCKTDPQTRPGKPCADYWGQGTQVTVSS
notes: as for B1
B11: hIL23R_VHH2 (VHH)
VHH: QVQLQESGGGSVQAGGSLRLSCAASGYTYCSYDMSWYRQAPGKKREFVSSFNSDGSTSYADSVKGRFTISQDNAKNTVYLQMNSLKPEDTAMYYCKTDPHADWGAPCGGDYWGQGTQVTVSS
notes: as for B1
B12: hIL23R_VHH4 (VHH)
VHH: QVQLQESGGGSVQAGGSLRLSCAASGSTYCTYDMTWYRQAPGKRREFVSAINSDGSTSYADSVKGRFTISQDNAKNTVYLQMNSLKPEDTAMYYCKTDPNSGWGAPCGGDYWGQGTQVTVSS
notes: as for B1
B13: mIL12Rb1_VHH7 (VHH)
VHH: QVQLQESGGGSVQAGGSLRLSCAVSGYDYCGYDVRWYRRAPGKEREFVSGIDSDGSTSYADSVKGRFTISQDNAENTSYLHMFSLKPEDTAMYYCKTESPAGESAWCRNFRGMDYWGKGTQVTVSS
notes: as for B1
B14: mIL12Rb1_VHH10 (VHH)
VHH: QVQLQESGGGSVQAGGSLRLSCAVSGYDYCGYDVRWYRQAPGKEREFVSGIDSDGSTSYADSVKGRFTISQDNAENTSYLHMFSLKPEDTAMYYCKTESPAGESAWCRNFRGMDYWGKGTQVTVSS
notes: as for B1
B15: mIL12Rb1_VHH16 (VHH)
VHH: QVQLQESGGGSVQAGGSLRLSCAVSGYDYCGYDVRWYRQAPGKEREFVSGINSDGSTSYADSVKGRFTISQDNAENTSYLHMFSLKPEDTAMYYCKTEGPAGESAWCRNFRGMDYWGKGTQVTVSS
notes: as for B1
B16: mIL12Rb1_VHH21 (VHH)
VHH: QVQLQESGGGSVQAGGSLRLSCAVSGYDYCGYDVRWYRRAPGKEREFVSGIDSDGSTSYADSVKGRFTISQDNAENTSYLHMFSLKPEDTAMYYCKTESPAGESAWCRNFRGMDYWGKGTQVTVSS
notes: as for B1
B17: mIL12Rb1_VHH3 (VHH)
VHH: QVQLQESGGGSVQAGGSLRLSCVASGYSYCGYDMMWYRQAPGKEREFVALITSDYSIRYEDSVEGRFSISRDNAKNTGYLLMSNLTPADTAIYYCKTSTAARESSWCRSRYRVASWGQGTQVTVSS
notes: as for B1
B18: mIL12Rb1_VHH11 (VHH)
VHH: QVQLQESGGGSVQAGGSLRLSCVASGYSYCGYDMMWYRQAPGKEREFVALITSDYSIRYEDSVEGRFSISRDNAKNTGYLLMSNLTPADTAIYYCKTSTAARESSWCRSRYRVASWGQGTQVTVSS
notes: as for B1
B19: mIL12Rb1_VHH13 (VHH)
VHH: QVQLQESGGGSVQAGGSLRLSCVASGYSYCGYDMMWYRQAPGKEREFVALITSDYSIRYEDSVEGRFSISRDNAKNTGYLLMSNLTPADTAIYYCKTSTAARESGWCRSRYRVASWGQGTQVTVSS
notes: as for B1
B20: mIL12Rb1_VHH4 (VHH)
VHH: QVQLQESGGGSVQAGGSLRLSCAASRYTYTNNFMAWFRQAPGKEREGVAAIYTGDGYAYYFDSVKGRFTISQDNDKNMLYLQMNSLKPEDTAMYYCAAMERRSGRRRMTENAEYKYWGQGTQVTVSS
notes: as for B1
B21: mIL12Rb1_VHH12 (VHH)
VHH: QVQLQESGGGSVQAGGSLRLSCAASRYTYTNNFMAWFRQAPGKEREGVAAIYTGDGYAYYFYSVKGRFTISQDNDENMLYLQMNSLKPEDTAMYYCAAMERRIGTRRMTENAEYKYWGQGTQVTVSS
notes: as for B1
B22: mIL12Rb1_VHH5 (VHH)
VHH: QVQLQESGGGSVQAGETLRLSCTVSGFTIDDSEMGWYRQAPGHECELVASGSSDDDTYYVDSVKGRFTISLDNAKNMVYLQMNSLKPEDTAVYYCATGPTYPPKDGDCAHWGQGTQVTVSS
notes: as for B1
B23: mIL12Rb1_VHH9 (VHH)
VHH: QVQLQESGGGSVQAGGSLRLSCVASGYGYCGYDMSWYRQAPGKEREFVALITSDRSISYEDSVKARFIISRDNAANTGYLDMTRLTPDDTAIYYCKTSAAARESSWCRSRYRVASWGQGTQVTVSS
notes: as for B1
B24: mIL12Rb1_VHH19 (VHH)
VHH: QVQLQESGGGSVQAGGFLRLSCVASGYGYCGYDMSWYRQVPGKEREFVALITSDRSVSYEDSVKGRFSISRDNAKNTAYLEMNRLTPDDTAIYYCKTSTAARENNWCRSRYRIASWGQGTQVTVSS
notes: as for B1
B25: mIL12Rb1_VHH8 (VHH)
VHH: QVQLQESGGGSVQAGGFLRLSCVASGYGYCGYDMSWYRQAPGKEREFVALITSERVISYEDSVKGRFSISRDNAENTGYLEMNRLTPDDTAIYYCKTSAAARESSWCRSRYRVASWGQGTQVTVSS
notes: as for B1
B26: mIL12Rb1_VHH15 (VHH)
VHH: QVQLQESGGGSVQAGGFLRLSCVASGYGYCGYDMSWYRQVPGKEREFVALITSDRSVSYEDSVKGRFSISRDNAKNTAYLEMNRLTPDDTAVYYCKTSTAARENNWCRSRYRIAYWGQGTQVTVSS
notes: as for B1
B27: mIL12Rb1_VHH20 (VHH)
VHH: QVQLQESGGGSVQAGGSLRLSCVASGYGYCGYDMSWYRQTPGKEREFVALITSDRIASYEDSVKGRFIISRDNAKNTGYLDMTRVTPDDTAIYYCKTSAAARENSWCRSRYRVASWGQGTQVTVSS
notes: as for B1

molecular target: T1, extracellular domain of human IL23R (hIL23R ECD) (human, UniProt Q5VWK5 24-355); assay: periplasmic extract ELISA (PE-ELISA) of phage clones, colorimetric
T1 construct: The immunogen was an ECD-human IgG1 hinge-Fc fusion
T1 sequence: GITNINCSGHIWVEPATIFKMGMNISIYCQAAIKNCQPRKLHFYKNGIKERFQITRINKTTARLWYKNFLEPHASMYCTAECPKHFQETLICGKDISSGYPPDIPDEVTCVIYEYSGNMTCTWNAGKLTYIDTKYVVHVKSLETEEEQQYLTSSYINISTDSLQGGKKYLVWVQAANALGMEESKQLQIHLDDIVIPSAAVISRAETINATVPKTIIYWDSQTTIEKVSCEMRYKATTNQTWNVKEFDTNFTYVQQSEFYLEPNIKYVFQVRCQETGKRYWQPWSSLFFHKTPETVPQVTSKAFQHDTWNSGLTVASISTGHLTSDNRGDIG
Outline: (§1)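 After multiple rounds of biopanning on the human or mouse extracellular domain, individual phage clones were screened for selective binding by colorimetric periplasmic extract ELISA in 96-well plates. The library was built from camels given human and then mouse receptor extracellular domain–human IgG1 hinge–Fc fusion proteins. Their blood RNA was transcribed, and the roughly 400 bp VHH fragment was placed in frame with a his-tag in a phagemid in E. coli.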

Does B1 bind?
Result: binds

Does B2 bind?
Result: binds

Does B3 bind?
Result: binds

Does B4 bind?
Result: binds

Does B5 bind?
Result: binds

Does B6 bind?
Result: binds

Does B7 bind?
Result: binds

Does B8 bind?
Result: binds

Does B9 bind?
Result: binds

Does B10 bind?
Result: binds

Does B11 bind?
Result: binds

Does B12 bind?
Result: binds

molecular target: T2, extracellular domain of mouse IL12RB1 (mIL12Rb1 ECD) (mouse, UniProt Q60837 20-565); assay: as above
T2 construct: The immunogen was a fusion of the ECD with the human IgG1 hinge and Fc; also called mIL12Rb1 ECD antigen
T2 sequence: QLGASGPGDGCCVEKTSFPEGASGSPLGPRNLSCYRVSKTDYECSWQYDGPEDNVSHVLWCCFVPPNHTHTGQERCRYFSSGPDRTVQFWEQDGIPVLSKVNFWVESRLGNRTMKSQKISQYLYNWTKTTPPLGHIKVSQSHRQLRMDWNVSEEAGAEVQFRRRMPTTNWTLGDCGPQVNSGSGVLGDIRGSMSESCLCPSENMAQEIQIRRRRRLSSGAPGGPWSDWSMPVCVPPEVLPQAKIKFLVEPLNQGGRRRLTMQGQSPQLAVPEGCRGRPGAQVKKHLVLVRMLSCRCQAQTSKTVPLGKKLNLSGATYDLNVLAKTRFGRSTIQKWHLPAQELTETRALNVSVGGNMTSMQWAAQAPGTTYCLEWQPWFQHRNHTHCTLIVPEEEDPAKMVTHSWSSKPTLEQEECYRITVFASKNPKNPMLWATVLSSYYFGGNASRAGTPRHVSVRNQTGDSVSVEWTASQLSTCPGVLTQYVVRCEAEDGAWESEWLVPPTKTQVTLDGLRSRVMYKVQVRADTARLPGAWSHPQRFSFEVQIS
Outline: as §1

Does B13 bind?
Result: binds

Does B14 bind?
Result: binds

Does B15 bind?
Result: binds

Does B16 bind?
Result: binds

Does B17 bind?
Result: binds

Does B18 bind?
Result: binds

Does B19 bind?
Result: binds

Does B20 bind?
Result: binds

Does B21 bind?
Result: binds

Does B22 bind?
Result: binds

Does B23 bind?
Result: binds

Does B24 bind?
Result: binds

Does B25 bind?
Result: binds

Does B26 bind?
Result: binds

Does B27 bind?
Result: binds
